Where a chain is given by its changes, count along the chain named.
Experiments:
[1] = molecular target: T1, human LAG-3 on cells (HEK293-hLAG-3 stable cell line) (human, UniProt P18627 23-525); assay: FACS, HEK293-hLAG-3, antibody 0.013 nM
T1 sequence: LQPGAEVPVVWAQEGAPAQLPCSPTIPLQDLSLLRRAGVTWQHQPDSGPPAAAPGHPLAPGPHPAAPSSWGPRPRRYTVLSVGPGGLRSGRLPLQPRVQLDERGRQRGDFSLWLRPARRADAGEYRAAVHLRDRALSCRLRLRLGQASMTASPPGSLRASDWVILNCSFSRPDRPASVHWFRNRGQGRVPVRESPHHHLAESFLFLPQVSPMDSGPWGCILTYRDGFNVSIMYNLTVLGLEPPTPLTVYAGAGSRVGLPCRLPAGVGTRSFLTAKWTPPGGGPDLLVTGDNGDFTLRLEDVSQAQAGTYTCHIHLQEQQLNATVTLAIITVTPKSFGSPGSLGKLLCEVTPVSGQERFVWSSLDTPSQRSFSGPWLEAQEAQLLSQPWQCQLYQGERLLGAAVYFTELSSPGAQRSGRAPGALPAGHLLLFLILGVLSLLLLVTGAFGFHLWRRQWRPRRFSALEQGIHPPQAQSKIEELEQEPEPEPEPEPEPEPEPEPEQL
Excerpt: The pIRES plasmid with the monkey-derived full-length gene was transfected into the HEK293 cell line to construct a HEK293 stable cell line containing monkey LAG-3 (herein referred to as HEK293-cLAG-3 stable cell line). The HEK293-hLAG-3 stable cell line and HEK293-cLAG-3 stable cell line were expanded in a T-75 cell culture flask to a 90% confluence. The medium was aspirated, and the cells were washed with HBSS (Hanks' Balanced Salt Solution) 1-2 times, then treated with a enzyme-free cell dissociation fluid (Versene solution: Life technology) and the cells were collected. The cells were washed with HBSS buffer for 1-2 times. After counted, the cells were diluted with HBSS to 1-2×10⁶ cells per ml, added with 1% goat serum blocking solution, incubated on ice for 20-30 minutes, and then washed with HBSS for 2 times by centrifugation. The collected cells were suspended in the FACS buffer (HBSS+1% BSA) to 2×10⁶ cells/ml, added as 100 microliters per well to a 96-well FACS reaction plate, added with 100 microliters per well of the antibody sample to be tested, incubated on ice for 1-2 hours. The plate was washed twice with the FACS buffer by centrifugation, added with 100 microliters of fluorescent (Alexa 488)-labeled secondary antibodies per well, and incubated on ice for 0.5-1.0 hours. The plate was washed 2-3 times with FACS buffer by centrifugation, added with 100 μl fixative solution (4% Paraformaldehyde) per well to suspend the cells. 5-10 minutes later, it was washed 1-2 times with FACS buffer by centrifugation. The cells were suspended with 100 microliters of FACS buffer, FACS (FACSCalibur, BD) was used for detection and the results were analyzed.

[2] = molecular target: T2, LAG-3-hFc protein (human LAG-3 extracellular region with hFc tag) (human, UniProt P18627 23-450); assay: FACS, inhibition of LAG-3-hFc binding to MHC II on Raji cells, antibody 66.667 nM
T2 construct: also called hLAG-3-hFc; LAG-3 protein; not shown: human IgG Fc fragment (hFc) of the pCpC vector
T2 sequence: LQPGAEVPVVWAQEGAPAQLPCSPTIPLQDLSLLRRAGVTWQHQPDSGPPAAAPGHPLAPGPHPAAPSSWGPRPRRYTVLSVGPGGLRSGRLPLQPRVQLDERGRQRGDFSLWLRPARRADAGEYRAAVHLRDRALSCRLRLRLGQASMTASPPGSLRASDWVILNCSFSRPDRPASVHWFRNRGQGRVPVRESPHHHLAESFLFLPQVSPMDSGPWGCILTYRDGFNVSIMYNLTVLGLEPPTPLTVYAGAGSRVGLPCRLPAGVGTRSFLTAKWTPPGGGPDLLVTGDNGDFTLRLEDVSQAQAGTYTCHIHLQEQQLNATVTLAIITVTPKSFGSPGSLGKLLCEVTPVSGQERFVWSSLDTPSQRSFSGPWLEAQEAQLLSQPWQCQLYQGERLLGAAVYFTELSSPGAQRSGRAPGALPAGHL
Experimental: The FACS reaction plate incubating the Raji cells was centrifuged to discard the supernatant. The above mixture was added as 100 μl per well to Raji cells and incubated on ice for 1-2 hours. The plate was washed twice with blocking solution (PBS, 2% fetal bovine serum) by centrifugation, added with 100 microliters of fluorescent (Alexa 488)-labeled secondary antibodies per well, and incubated on ice for 1.0 hours. The plate was washed 2-3 times by centrifugation with blocking solution (PBS, 2% fetal bovine serum), added with 100 microliters of PBS per well to suspend cells, and detected using FACS (FACS Calibur, BD) and the results were analyzed. Wherein, the IgG control was murine IgG, and the data in the table is the inhibition rate (%).

[3] = molecular target: T3, human LAG-3 ECD (antigen protein of the affinity test) (human, UniProt P18627 23-450); assay: SPR, CM5 chip, antibody captured by anti-human Fc IgG, antigen in flow, 1:1 fit
T3 sequence: T2 sequence
Experimental: First, anti-human Fc IgG was immobilized on the surface of the CM5 chip to 6000-10000 RU by amino coupling method, with FC1 as the reference channel. The coupling process was as follows: a freshly prepared 1:1 mixture of 50 mM NHS and 200 mM EDC was activated for 7 minutes, then injected with 10-50 ug/ml anti-human Fc IgG diluted in 10 mM sodium acetate ph5.0 buffer. The remaining activated sites were blocked with 1M ethanolamine. Then, HBS-EP+ buffer was used to dilute the antibody to be tested to 5 ug/ml (adjustable according to the capture level) and the antibodies were captured on the chip at a flow rate of 10 ul/min to obtain a response value of about 100˜300 RU. Then the antigen protein was diluted to 100 nM (the highest concentration was tentatively 100 nM), and flew through the chip surface at a flow rate of 30 ul/min. If enough signal value was obtained, the antigen-protein was diluted by several concentration gradients, and flew through the chip surface respectively. At the end of each cycle, the chip surface was regenerated with 10 mM Glycine at pH 1.5. The kinetic rate constant needed to be subtracted from the blank control, and the data was fitted with the global fit analysis method 1:1 combination model. The dissociation equilibrium rate constant (KD) was calculated according to the following formula: KD=kd/ka.

[4] = molecular target: T1, human LAG-3 on cells (HEK293-hLAG-3 …); assay: FACS, HEK293-hLAG-3, antibody 0.013 nM; remark: listed apart in the source
[5] = molecular target: T1, human LAG-3 on cells (HEK293-hLAG-3 …); assay: FACS, HEK293-hLAG-3, antibody 1.6 nM

B1: 556F6B8 mouse-human chimeric antibody (antibody, V domains shown)
VH: RVQLKQSGPGLVQPSQSLSITCTVSGFSLIKYGVHWVRQSPGEGLEWLGVIWRGGITDYNAAFMSRLSITKDNSKSQVFFKMNSLQADDTAIYYCAKWDGPLAMDYWGQGTSVTVSS
VL: DIVMTQSHKFLSTSVGDRVSITCKASQDVGTTVAWYQQKPGQSPKLLIYWASTRHTGVPDRFTGSGSGTDFTLTISNVQSEDLADYFCQQYSSYPYTFGGGTKLEIK
notes: also called mAb123-556F6B8; 556F8B8
- Mean fluorescence intensity [1]: 4.2
- Inhibition rate (%) [2]: 96%
- Kd [3]: 3.39 nM
- koff [3]: 0.000455 s⁻¹
- kon [3]: 134000 M⁻¹ s⁻¹
- Mean fluorescence intensity [4]: 6

B2: 105F1E10 mouse-human chimeric antibody (antibody, V domains shown)
VH: EVQLQQSGPELVKPGASVKMSCRASGYTFTDFKMHWMKQSHGKSLEWIGYIAPNNGGTAYNQKFRGKATLTVNESSNTAYMELRSLTSEDSAVYYCVDWDDVDYWGQGTTLTVSS
VL: DIKMTQSPSSMYASLGERVTITCKASQDINSYLSWFQQKSGKSPKTLIYRANRLVDGVPSRFSGSGSGQDYSLTISSLEYEDMGIYYCLQYVEFPLTFGAGTKLELK
notes: also called mAb009-105F1E10
- Mean fluorescence intensity [1]: 3.6
- Inhibition rate (%) [2]: 96%

B3: 405B8H3 mouse-human chimeric antibody (antibody, V domains shown)
VH: QVQLQQSGAELVRPGASVTLSCKASGYTFTDYEMHWVKQTPVHGLEWIGATDPETGNSAYNQKFKGKAIMTADKSSSTAYMELRSLTSEDSAVYYCISTGWNDWGQGTSLTVSS
VL: B2 VL with S40P, N52D, V55L, E81G, V92D, L96Y, A100G, L106I
notes: also called mAb103-405B8H3
- Mean fluorescence intensity [1]: 4
- Inhibition rate (%) [2]: 95.8%
- Kd [3]: 2.58 nM
- koff [3]: 0.000165 s⁻¹
- kon [3]: 64000 M⁻¹ s⁻¹
- Mean fluorescence intensity [5]: 139

B4: 409B11E12 mouse-human chimeric antibody (antibody, V domains shown)
VH: B3 VH with P41T, G56S, N57Y, M70L, S98A
VL: B2 VL with I2L, S40P, V55L, V92D, L96Y, A100G, L106I
notes: also called mAb104-409B11E12
- Mean fluorescence intensity [1]: 4.1
- Inhibition rate (%) [2]: 95.3%

B5: 409D4E10 mouse-human chimeric antibody (antibody, V domains shown)
VH: B3 VH with Y27N, G56D, S58T, M70L, A72T, S98T, T99S
VL: B2 VL with S40P, V55L, V92N, L96Y, A100G, L106I
notes: also called mAb112-409D4E10
- Mean fluorescence intensity [1]: 4
- Inhibition rate (%) [2]: 95.9%
